Reference: US20190169240, “DNA-BINDING PROTEIN USING PPR MOTIF, AND USE THEREOF” (KYUSHU UNIVERSITY, NAT'L UNIVERSITY CORPORATION, published 2019)

T1: pTac2-VP64 (PPR motif region) (Arabidopsis thaliana, UniProt Q9S7Q2 SEQ:106-632)
T1 chain: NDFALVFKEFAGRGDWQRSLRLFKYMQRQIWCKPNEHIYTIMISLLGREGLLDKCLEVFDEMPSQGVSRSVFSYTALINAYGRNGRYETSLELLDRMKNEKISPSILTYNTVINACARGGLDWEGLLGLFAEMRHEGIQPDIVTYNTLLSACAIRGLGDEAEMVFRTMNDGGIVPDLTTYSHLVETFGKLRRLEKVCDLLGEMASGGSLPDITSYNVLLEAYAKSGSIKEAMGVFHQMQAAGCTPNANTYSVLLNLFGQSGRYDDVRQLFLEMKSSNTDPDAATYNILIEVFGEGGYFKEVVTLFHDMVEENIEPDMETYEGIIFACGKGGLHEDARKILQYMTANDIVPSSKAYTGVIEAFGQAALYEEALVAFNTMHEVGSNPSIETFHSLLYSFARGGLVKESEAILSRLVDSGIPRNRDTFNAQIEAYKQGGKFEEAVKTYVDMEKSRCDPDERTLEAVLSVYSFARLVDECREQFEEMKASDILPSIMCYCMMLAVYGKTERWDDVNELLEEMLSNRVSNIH

T2: GUN1-VP64 (PPR motif region) (Arabidopsis thaliana, UniProt Q9SIC9 SEQ:234-621)
T2 chain: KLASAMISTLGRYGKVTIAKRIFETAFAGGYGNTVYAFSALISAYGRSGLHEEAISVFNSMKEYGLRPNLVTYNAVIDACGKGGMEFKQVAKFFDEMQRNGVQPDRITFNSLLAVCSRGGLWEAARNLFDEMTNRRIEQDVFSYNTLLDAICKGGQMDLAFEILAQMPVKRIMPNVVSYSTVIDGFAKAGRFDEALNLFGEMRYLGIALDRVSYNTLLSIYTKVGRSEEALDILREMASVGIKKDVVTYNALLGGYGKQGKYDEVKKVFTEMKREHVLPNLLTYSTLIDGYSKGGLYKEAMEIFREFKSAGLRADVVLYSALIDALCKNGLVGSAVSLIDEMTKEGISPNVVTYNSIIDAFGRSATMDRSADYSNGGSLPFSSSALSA

B1: pTac2 predicted target (dsDNA)
DNA 1: AACTTTCGTCACTCA
DNA 2: TGAGTGACGAAAGTT
B2: GUN1 predicted target (dsDNA)
DNA 1: AATTTGTCGAT
DNA 2: ATCGACAAATT

Legend:
Conditions in all cases: tags: N-terminal Flag and nuclear localization signal, C-terminal VP64
[1] = target: T1, pTac2-VP64 (PPR motif region); assay: cell_activity; 8x target reporter; HEK293T, Fluc/Rluc vs pminCMV-luc2
Protocol: (§1) A reporter vector (pminCMV-luc2, SEQ ID NO: 10) was prepared, in which the firefly luciferase gene was ligated downstream from the Minimal CMV promoter, and a multi-cloning site was placed upstream of the promoter. The predicted target sequence of each PPR was inserted into the vector at the multi-cloning site. The target sequence of each PPR ([…] for p63, […] for pTac2, and […] for GUN1, SEQ ID NOS: 11 to 13 in Sequence Listing) was determined by predicting the motif-DNA recognition codes of DNA-binding type PPR from the motif-RNA recognition codes observed in the RNA-binding type PPR. For each PPR, sequences containing 4 or 8 of target sequences were prepared, and used in the following assay. The nucleotide sequences of the vectors are shown as SEQ ID NOS: 14 to 19 in Sequence Listing. […]
(§2) The luciferase activity was compared for the cases of introducing pTac2-VP64 or GUN1-VP64 together with pminCMV-luc2 for a negative control, or the reporter vector having 4 or 8 target sequences (table mentioned below, FIG. 6). The comparison of the activity was performed on the basis of standardized scores obtained by dividing the measured values obtained with Fluc (firefly luciferase) with the measured value obtained with Rluc (Renilla luciferase) as the reference (Fluc/Rluc).

[2] = target: T2, GUN1-VP64 (PPR motif region); assay: as above
Protocol: as §1, §2

[3] = target: T2, GUN1-VP64 (PPR motif region); assay: cell_activity; 4x target reporter; HEK293T, Fluc/Rluc vs pminCMV-luc2
Protocol: as §1, §2

Row | Binder | activity [1] [fold activation] | activity [2] [fold activation] | activity [3] [fold activation]
1 | B1 | 4.89 |  | 
2 | B2 |  | 3.15 | 2.88
